This note sets out measurements from the supplement of paper PMC11502859.
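Also: lentiviral eGFP-IRES-mCherry reporter pool sorted by FACS 96 h post-transduction, gated on mCherry-high cells, Illumina read counts normalized per million, median across four biological replicates.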

For this series, the system named is HEK293T. Briefly: median enrichment of reporter reads in eGFP-reduced (low/intermediate) vs eGFP-high sorted cells (eGFP-extension fusion abundance) (ratio); higher = stronger loss of eGFP-fusion protein abundance (more destabilising extension).
With VGTMAAGRAPGK [Degron APPBP2], the median enrichment stood at 6. In the case of “LLLPADLWIRSLLTGCVTLGPELPLSGPQRPYEGPLLQEHPHDIAFGGAPVACRIACGLCNLLRFKTDGHMCQWGSLSPGPKK [JAK3]” it was 5.04. Regarding GTLTV [ABCB1], the median enrichment amounted to 0.767.

As for “LPFSGLQPPPGWKPWGPSGLGGAASRERAPFSGLPPQHAAS [CDR2L]”, the median enrichment came out at 5.38. In the case of CLHW [RIMKLB] it was 3.73; in that of CCCCC [Cys05], 4.25. In the case of SVQMMWEFVGFLFFFFFDT [ZNF80] it was 7.98.

Regarding CLSTVLFS [SUDS3], the median enrichment worked out at 5.55. In the case of “SYEQNKTLRKINRQGSDLFLKNLRSVDSQED [PRKACB]” it was 2.01. In the case of “RGCAPAGSSKDRPARSPSNPTFFWKGGVLQGQAGASSRLLGANPSMYIAFLSCLRAADSQRCARGERCAVGSRA [TNFRSF1A]” it was 10.5; in that of QKGRAQQCK [IRX2], 1.1. Take “RALVPWQRDEKLQALSPAWAGSGARGCDSSRRVETLGWTGGGQRPAGGAPGMCPDMVNL [VAV1]”: the median enrichment came out at 1.76. In the case of EIKCTRSQ [NLRC4] it was 9.53; in that of YPDPHRCCDLFVLSTVE [FGF14], 9.33. SGTWCATGCKLQGIFIGCSCIVLHSSAIYF [PSEN2]: the median enrichment turned out to be 7.44. In the case of “PCRHHPPPSPCPQPVCPVPCPPQAWWWQWRRLRRLKRLTGRGAFCLAHCPDDPPAPSRLQQQSPRRTGWTEEKEVDCCTHTER [SOX10]” it was 3.84; in that of RAPWWERL [HTT], 1.54. With SMLIP [ZMYND15], the median enrichment was found to be 0.546. In the case of “LLGGPGRRVPPSPCQGPGDPLPGCLRLLLRRGNAKKEKEKPRARPLPPAVHCAASSVPGLTVPLSSAPARQGTCSQPWVDLFF [NRXN2]” it was 6.99; in that of DDDDDDD [Asp07], 0.338; in that of QTVKEGVFVWTR [DSC1], 2.42. In the case of SGKWCFPQEDYWNWMTSE [ACBD5] it was 2; in that of “CASTRAVGDSCPHLCPRAASCLALPPHSPPGMGLLLPGSLKETAAC [FAM160B2]”, 6.35. As to GGR [RGS21], the median enrichment came to 0.868.

As for “GFHSRGCCKQRDCHLELGWQGRAASFDSESSCPSPKPPPTP [SYT6]”, the median enrichment was found to be 0.961. Regarding LNQFLGLTAM [BTN2A1], the median enrichment amounted to 12.4. In the case of LLLLLL [Leu06] it was 6.86.

For the substance EYPRFKKRT [PPP2R1B], the median enrichment worked out at 1.16. As for SPPGPSPGSGTLVPNPERSALLP [VPS35L], the median enrichment came out at 0.894. Consider YVD [GLUL], for which the median enrichment was 0.387. For QGIQGTAL [CXorf26], the median enrichment stood at 0.941. As for SKQVTDLF [FOXN3], the median enrichment was 0.53. With LKPERIVK [OR2A25], the median enrichment was 0.737.

In the case of HHHH [His04], the median enrichment turned out to be 0.323. In the case of “LIPVDPQGLAKARDTQREMLVIPLENLASNFLYV [KRT38]” it was 39.9; in that of “KHHQSVKGLCGMQEFQTHGQSGLFFLVLRASSEHRSHIAAHREGWNEKWKRGSTFLLGDMNHLCSYYVIRNLVAWPYLAAREP [CFAP61]”, 4.22; in that of SFAFIF [CHST9], 8.28. As to QMTKP [RBFOX1], the median enrichment is 0.233. As to YLL [TOR1AIP2], the median enrichment was found to be 3.21. In the case of “LGLLPLGPLTLSGWWTTKYNPVYNLKIYFTFVLLYLFIKG [SMAD4]” it was 5.85; in that of WPSSLPPKPTTQC [KPNA7], 0.282; in that of RNRGLNVFRVRMP [PARD6B], 4.57. In the case of “SVGSPSKPRPLKPPLAAPRSSHYLCPEGGKSFPAHPPR [BCL7C]” it was 1.39; in that of NNNN [Asn04], 0.299. LSQTSFYIREPFQYSESETPA [ZNF12]: the median enrichment was determined as 3.12. In the case of “RGAEGPMGEERRALLGKVGFLDPRDKLFRCHNVEESTWGTTVLVQVGLGKCTSLPLTPRQNPHPSLWILGKVPVPGEYPGPQT [IGHMBP2]” it was 5.61; in that of YQLINLE [BRWD3], 0.91; in that of “LPAIDNVAGTSASPLQPSNFPGTLLSAPEEGAVVSCCLWAPASSAVLGSVLLASVNNKATVCSGICGFVHSVTCHLHRALMAG [MCM5]”, 5.35. Take CRSWRTLGPRPAPIAGGR [MKNK2]: the median enrichment was found to be 8.08.

As to “YPCTISPSSFLGQPGPALVCGDWRDQERVWRPPEGCCLPGLQ [MLST8]”, the median enrichment was 5.76.

For the substance CGPEASWVSLGPQKLIKE [PCP2], the median enrichment was 0.292. As to “LEKPSSFVETVALQPWRRTCWYLKNGTFATQD [DOCK8]”, the median enrichment came to 6.15.

Regarding CSWSRG [MLIP], the median enrichment was 6.67.

In the case of “KIFFSPIFLPASGDTAAVTREASLGGPDAQGESWSGESMSCDTTAGAICSPAFLSVGEGISEFILYPRLAFTKFKSLSMRPRP [PGPEP1]”, the median enrichment was 11.5.

CGILGDSPREELGC [CEP85]: the median enrichment was 0.759.

Regarding “YFVLRTDFLPIPFLNIQRLYWPVSFYFFPPDKYFRS [STMN1]”, the median enrichment came to 15.2. Take CGHLSGPGALMEAIGTPELPSHS [ODF2]: the median enrichment is 0.872. Consider “CGCAPAGSSKDRPARSPSNPTFFWKGGVLQGQAGASSRLLGANPSMYIAFLSCLRAADSQRCARGERCAVGSRA [TNFRSF1A]”, for which the median enrichment came out at 13.5. In the case of SPGEKL [ZNF322] it was 0.169. Take TTTTTTTTTT [Thr10]: the median enrichment stood at 0.379. Take KKCEECGKSFS [ZNF676]: the median enrichment came out at 0.361. For “LAFRLALAPGTRSPRAPGPLPAPAAPSPSPGCVSLPMTLSWGPPARPGTFLPNPQTHDSLPHRLPQRPPTHFILSGHPSDLDP [SCRT2]”, the median enrichment came to 3.18. On to YDSISP [CBLN4], for which the median enrichment worked out at 0.384. In the case of WWWW [Trp04] it was 7.39. In the case of WFC [HNRNPF] it was 2.6. EEEEEEE [Glu07]: the median enrichment turned out to be 1.23. In the case of YWAPSL [MSN] it was 2.04; in that of YLYHYSRSSSQHHLLATWDV [GCG], 12.4. In the case of “GKSPVSQHRGAALHTCGETFPAGPRESDSKNNRCCFSRVM [HABP4]” it was 8.99; in that of YCLSILVHGCFERYGRQSPGHN [MAGEC3], 5.24; in that of KTIQKRNQFFPQSIQCLEY [HEATR3], 5.13. In the case of YMFVWN [STKLD1] it was 6.18; in that of “WPSLRPTCTSGSKWVSSGSPARVLSECLCVCINICIPFGSIAAV [XPNPEP3]”, 17; in that of RFLVTA [GXYLT1], 2.37. With QGVSLSLSFCIICLAECVYRLPKFTKKL [VNN2], the median enrichment was 10.5. As to LSPLFLPTLQGPHSPYPSVQCTREETLCL [IDH3B], the median enrichment came to 7.06. In the case of “RCDQVALGRDPRVFMRHLKLIKELRLELIWCSP [KCNC2]”, the median enrichment was 10.9.

RRPRAPHLSRSLMPQGAQ [SLC44A2]: the median enrichment is 1.11. For the substance RNEYMTGNNGDCL [CTPS2], the median enrichment came out at 0.464.

As for KMDPCEIYHSLVSPSFLSFLNSTFWRDFPK [OR9Q2], the median enrichment came to 3.34. As for CTTQDTHSTCMNNTGHTQARA [CCDC40], the median enrichment was determined as 1.14.

KVCRSQ [KRTAP11-1]: the median enrichment came to 3.09. In the case of QTHGTDSLGN [DPF3] it was 0.444; in that of “QKCGKAFTKSSYCVQHLKFNTEQMQYKCNDSGRTFIILEGL [ZNF736]”, 4.28; in that of “WTHPLVVDRLPGTTIIPGPPRASEFETLAEIK [TBC1D7]”, 4.38.

Take “LATATALPVRQAPKGGGGMAQEEGCEEEEGEMAVASGSALQL [FAM228A]”: the median enrichment came out at 0.27.

On to “QEHPHDIAFGGAPVACRIACGLCNLLRFKTDGHMCQWGSLSPGPKKQGTKFKTLASSQPLKPWPPEFPFLSLSFYFFYFYFYF [JAK3]”, for which the median enrichment was determined as 7.54. On to YMHCSGS [STT3B], for which the median enrichment is 2.33. As for REALHLNLFMS [ERI2], the median enrichment was 2.13. In the case of “RAWLPACTPPLPPHESPPAGYRGRHAPGASPALGTTCLPAPPGPGPPAAPHFRRGLEQGEAGLWGAVREIYWGPQILL [ECEL1]” it was 4.03; in that of YDTP [CD1A], 0.395; in that of YGFKTFLLHSTNLTSF [SNED1], 33.4. In the case of RGPPGLWGERM [CHRNB4] it was 1.36. In the case of “CTRAGGGAERGAPPPLRSLALSRPSCSLSNF [POU3F2]” it was 4.86; in that of “LAEDPADPYLEEEEKQERESHSQPAIGSNWTTCGMDLETSTSPNTSPLPRAGPVHALP [CYFIP2]”, 1.33; in that of WMLSRSWRFKKKCRMAV [OR52D1], 23.1. Consider SYFRLESKTS [PIK3CG], for which the median enrichment was found to be 1.99. Consider WPFSWATLQSLPPFGR [ZNRD1], for which the median enrichment came to 6.12. In the case of RGIRLPGNSGTVALADHLQHPAS [SLC2A10] it was 0.279; in that of LNGSI [PHF20L1], 0.416; in that of LFD [RBM26], 1.04. In the case of “WGHRSEMRGLECGWAPGAMGGCGAGEIKSELLLPGVPTSSSGQSVHSQPDR [BCL2]” it was 5.52; in that of QQQQQ [Gln05], 0.381. In the case of SFQNWMDFYFFQ [CCDC169] it was 19.6. On to LPAAPGTRGYTPVSLRE [KRTAP12-3], for which the median enrichment amounted to 0.986.

In the case of “LVSRPWGSCFPIPEFPCSPPPVVLPDLHLELSPPESPHRRPAMEPSPPGAPWGPSP [ALPG]”, the median enrichment stood at 10.3. Turning to YRRQRAWCDLVGSGNGRKRSPP [BTBD9], the median enrichment was 6.86. In the case of “LVLLVLLICRCHRTAVTRFLIVPAQPCPRTLGCMSHNMDPG [TREML4]” it was 3.13.
